These results are taken from publication PMC3771576.

In this data set the target is rYbx1 (wild type) (Danio rerio (zebrafish)) (UniProt B5DE31). Put plainly: EMSA. The following applies: RNA EMSA; binding buffer and temperature not given; extract lysis buffer 20 mM Tris pH 8.0, 100 mM NaCl, 0.1 mM EDTA, 1 mM 6-aminohexanoic acid, 1 mM PMSF, 25% …. In general terms: Mobility shift assays separate free from complexed probe on a gel.
rYbx1 (wild type) (Danio rerio (zebrafish)), sequence (B5DE31 whole entry): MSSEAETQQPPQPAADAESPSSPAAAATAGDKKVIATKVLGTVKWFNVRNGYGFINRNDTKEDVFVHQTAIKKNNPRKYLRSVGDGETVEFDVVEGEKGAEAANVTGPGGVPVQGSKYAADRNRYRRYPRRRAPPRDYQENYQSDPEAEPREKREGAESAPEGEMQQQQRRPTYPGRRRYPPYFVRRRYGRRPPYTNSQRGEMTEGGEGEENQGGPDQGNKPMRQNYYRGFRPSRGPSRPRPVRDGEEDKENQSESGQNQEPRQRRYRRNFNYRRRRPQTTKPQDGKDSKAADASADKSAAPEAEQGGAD

For “GGGAGAACAAUUUUUCUUUUUUUAGGUGUGGAUUAAUGCAAAAUUAGGCUUCUUUUUAGAUGCAGAGAAUGUGCAUGUAGAUGCUGUUAAAGUAACUUUUUAUAAU [vg1.2 probe]”, the binding result is recorded as “no binding”.
Next, “GGGAGAAGUGGAUGCAGAUGAACAUGACUUAAUUUUUAAAUGCACAAUUUGUUUAUUACAAUUUUUCUUUUUUUAGGUGUGGAUUAAUGCAAAAUUAGGCUUCUUUU [vg1.1 probe]”: “no binding”.
Regarding “GGGAGACCGGCCGCACAACCAUUCACGCAAAAGACAACACACGCGUCGUGGAUGAAGUAAUCCUCUUUGCAAAUAUGUAAAGCUGUAUAUUUCUAAUGUAAAUA [wnt8a.1 probe]”, the binding result is listed as “no binding”.
In the case of “GGGAGAGAUGCAGAGAAUGUGCAUGUAGAUGCUGUUAAAGUAACUUUUUAUAAUUCAUUGUAAUGUAAUAAUAAAAACUUUUACUAUGGGAUUCCUUUUUUUUC [vg1.3 probe]” it was “no binding”; in that of “GGGAGAUAUUUUAUGAGAUUUUAAGAUAUAAUUUUCUGUAUAUUUCUGCAAGCAAAAUGUAAAUUGACGCUCUAUAUAAGACACAUGGGCUUUCUCGUUCCCAC [wnt8a.2 probe]”, “no binding”.
Take “GGGAGAUGUCAAUUGAAUUCAUUGAAGUUCUAUUUUGAAGUUCAUUAUUUGCACUUUUUCGUUCUCGACAUAAGAUCACAGAUUUUGUUGCUCUCAAAAAAUGU [wnt8a.3 probe]”: the binding entry is recorded as “no binding”.
Next, “GGGAGAUUGUAUUUUUUCAUGCACAGAUCACUUGACAGUAUGCAGUGUUUCACGAUGAGGUUUAAAUGUUGUGUUUUAUGGAACUUAUUUAAGGCAAAUAUUUU [wnt8a.4 probe]”: “no binding”.
